Experimental findings from patent US20170313776A1 (SORRENTO THERAPEUTICS, published 2017) are described below.

The target of assay [1] is T1, PD-L1 expressed on CHO-PD-L1 cells (UniProt Q9NZQ7 19-290, limits assumed).
T1 construct: whole, on cells
Kind of assay: flow cytometry on CHO-PD-L1 cells. The text has this:
(§1) This example illustrates in vitro data for cellular binding EC50 measurements and cell binding specificity. […] The experimental procedure was as follows: CHO-PD-1 cells and CHO-PD-L1 cells were obtained by stably transfecting CHO-K1 cells with PD-1 cDNA ORF clone (Origene RG210364) and PD-L1 cDNA ORF clone (Origene RG213071) respectively. After 2 weeks of Neomycin selection, clones were isolated by Fluorescence-activated cell sorting (FACS) and further expanded. […] For cell binding assays, 50,000 CHO-PD-1 cells, CHO-PD-L1 cells, and ES-2 cells were aliquoted into the wells of a 96-well, v-bottom plate in 100 μl FACS Buffer (PBS+2% FBS). A twelve point, 3× dilution curve of each anti-PD-1 antibody was made in FACS Buffer starting at 50 μg/ml (3.33×10⁻⁷M). Cells were spun down, washed twice with FACS Buffer, and then resuspended in 25 μl of antibody solution in triplicate. After 0.5 hr incubation, cells were washed 1× with FACS Buffer and resuspended in 50 μl PE-conjugated, goat anti-human IgG (γ-chain specific) secondary antibody (Southern Biotech Cat #2040-09). Cells were further incubated for 0.5 hr and then washed 1× with FACS Buffer. Cells were resuspended in 25 μl FACS Buffer and the median fluorescence intensity in the FL2-H channel was determined using the Intellicyt HTFC flow cytometer. Data was analyzed and plotted in Graph Pad Prism using non-linear regression fit.
(§2) Data points on the graph are shown as the median fluorescence intensity (MFI) of positively labeled cells depending on the antibody concentration +/− Std Error.

The target of assay [2] is T2, human PD-1 expressed on cells (human, UniProt Q15116 25-288).
T2 construct: whole, on cells; One entry for cell-surface PD-1; also called CHO-PD-1 cells; Jurkat PD-1 cells
T2 sequence (Q15116 25-288): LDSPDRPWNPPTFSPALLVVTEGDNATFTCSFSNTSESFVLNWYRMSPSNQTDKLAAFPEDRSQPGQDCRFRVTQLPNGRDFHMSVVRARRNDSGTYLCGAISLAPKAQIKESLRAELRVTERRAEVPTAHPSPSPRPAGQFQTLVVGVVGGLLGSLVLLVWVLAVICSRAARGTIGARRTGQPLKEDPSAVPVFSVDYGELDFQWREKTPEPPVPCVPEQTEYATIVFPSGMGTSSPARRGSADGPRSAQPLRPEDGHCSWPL
The assay can be described thus: flow cytometry on CHO-PD-1 cells.
Description: as §1, §2

The target of assay [3] is T3, recombinant human PD-1 protein (human, UniProt Q15116 25-167, limits assumed).
T3 construct: also called monomeric recombinant human PD-1
T3 sequence (Q15116 25-167 limits assumed): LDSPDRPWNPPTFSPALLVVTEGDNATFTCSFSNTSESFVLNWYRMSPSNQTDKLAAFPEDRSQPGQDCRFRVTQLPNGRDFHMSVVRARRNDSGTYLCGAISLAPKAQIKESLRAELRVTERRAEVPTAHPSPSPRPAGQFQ
The assay can be described thus: ELISA on recombinant human PD-1.

Assay [4] addresses T4, recombinant cynomolgus PD-1 (cynomolgus).
T4 construct: also called cyno PD-1
The assay can be described thus: ELISA on recombinant cynomolgus PD-1.

The target in assay [5] is T2, human PD-1 expressed on cells. Kind of assay: flow cytometry on Jurkat T cells stably expressing human PD-1.
Description: Primary antibody binding to Jurkat PD-1 cells was detected by flow cytometry using either anti-heavy chain or light chain antibodies directly conjugated to fluorochromes (identical binding curves were obtained using either detection reagent).
Assay [6] has as its target T5, recombinant human PD1 (His-tagged) protein (human, UniProt Q15116 25-167, limits assumed).
T5 construct: not shown: His tag
Kind of assay: SPR, antibody captured on anti-human Fc, PD1/His as analyte, 1:1 Langmuir fit. Here is the method: Anti-human Fc antibody was immobilized on CMS sensor chip with approximately 1000 RU. Antibodies (about 10 μg/ml) were captured for 60 s at a flow rate 10 μl/min.PD1/His was serially diluted in running buffer (HBS-EP). All measurements were conducted with a flow rate of 30 μL/min. Surfaces were regenerated with 3M MgCl₂ for 60 s. A 1:1 (Langmuir) binding model was used to fit the data.

A further assay addresses T6, recombinant mouse PD-1 (mouse, UniProt Q02242 25-167, limits assumed).
T6 sequence (looked up): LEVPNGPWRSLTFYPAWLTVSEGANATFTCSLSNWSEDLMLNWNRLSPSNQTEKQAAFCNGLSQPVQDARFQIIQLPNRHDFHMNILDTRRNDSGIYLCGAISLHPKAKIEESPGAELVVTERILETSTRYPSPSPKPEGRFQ
Kind of assay: ELISA, detection with anti-human IgG4 heavy chain or anti-human lambda light chain.

Assay [7] addresses T3, recombinant human PD-1 protein. Kind of assay: Biacore, antibody captured on protein A, monomeric recombinant human PD-1 as analyte.
For assay [8], the target named is human CTLA-4 (recombinant) (human, UniProt P16410 36-161, limits assumed). The assay can be described thus: ELISA on coated recombinant protein, one antibody concentration (not given).
Chain of human CTLA-4 (recombinant) (P16410 36-161 limits assumed): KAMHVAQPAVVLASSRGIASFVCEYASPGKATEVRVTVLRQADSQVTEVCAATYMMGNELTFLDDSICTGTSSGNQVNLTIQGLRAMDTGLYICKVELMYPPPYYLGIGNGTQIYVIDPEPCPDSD
For a further assay, the target named is human CD28 (recombinant) (human, UniProt P10747 19-152). The description is as above.
A further assay has as its target T7, human ICOS (recombinant) (human, UniProt Q9Y6W8 21-140, limits assumed).
T7 sequence (looked up): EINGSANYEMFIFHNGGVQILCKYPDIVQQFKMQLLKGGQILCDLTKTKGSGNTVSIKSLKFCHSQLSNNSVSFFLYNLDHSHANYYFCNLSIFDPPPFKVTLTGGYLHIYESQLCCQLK
Described as above.

Assay [9] deals with T2, human PD-1 expressed on cells. The assay can be described thus: flow cytometry on anti-CD3-activated PBMC. On the procedure:
(§3) This example illustrates in vitro data for cellular binding EC50 measurements. […] The experimental procedure is as follows. Peripheral blood mononuclear cells (PBMC) were added to the wells of a 24 well plate and stimulated anti-CD3 (3 ng/ml). After three days of culture the cells were harvested and added to the wells of wells of a 96-well, v-bottom plate in 100 μl FACS Buffer (PBS+2% FBS). A twelve point, 3× dilution curve of each anti-PD-1 antibody was made in FACS Buffer starting at 10 μg/ml (0.6×10⁻⁷M). Cells were spun down, washed twice with FACS Buffer, and then resuspended in 25 μl of antibody solution in triplicate. After 0.5 hr incubation, cells were washed 1× with FACS Buffer and resuspended in 50 μl PE-conjugated, goat anti-human IgG (γ-chain specific) secondary antibody (Southern Biotech Cat #2040-09). Cells were further incubated for 0.5 hr and then washed 1× with FACS Buffer. Cells were resuspended in 25 μl FACS Buffer and the median fluorescence intensity in the FL2-H channel was determined using the Intellicyt HTFC flow cytometer. Data was analyzed and plotted in Graph Pad Prism using non-linear regression fit.

The target is the same in assay [10]. Kind of assay: flow cytometry on anti-CD3-activated PBMC. On the procedure:
as §3
This is another data set of the same source.

Assay [11] has as its target T5, recombinant human PD1 (His-tagged) …. Kind of assay: BIAcore, mAb captured on anti-human Fc, His-tagged human PD1 as analyte.

T1 sequence (Q9NZQ7 19-290 limits assumed): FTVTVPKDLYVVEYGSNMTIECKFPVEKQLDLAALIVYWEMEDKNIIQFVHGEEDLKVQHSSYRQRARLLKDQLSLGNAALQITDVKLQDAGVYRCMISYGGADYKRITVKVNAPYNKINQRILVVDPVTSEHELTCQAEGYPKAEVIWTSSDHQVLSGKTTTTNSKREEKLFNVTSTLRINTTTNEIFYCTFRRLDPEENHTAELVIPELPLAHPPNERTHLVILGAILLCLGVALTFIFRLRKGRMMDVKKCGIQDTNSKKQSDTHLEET
T5 sequence (Q15116 25-167 limits assumed): as the sequence (Q15116 25-167 limits assumed) above

B1: RG1B3 (IgG) (antibody, V domains shown)
VH: QVQLVQSGAEVKKPGASVKVSCKASGYTFTSYGISWVRQAPGQGLEWMGWISAYNGNTNYAQKLQGRVTMTTDTSTSTAYMELRSLRSDDTAVYYCARGLYGDEDYWGQGTLVTVSS
VL: LPVLTQPPSVSEVPGQRVTISCSGGISNIGSNAVNWYQHFPGKAPKLLIYYNDLLPSGVSDRFSASKSGTSASLAISGLRSEDEADYYCAAWDDNLSAYVFATGTKVTVL
notes: Detected with anti-human IgG (gamma chain specific); also called PD1 RG1B3
Take B1: the binding result in assay [1] is on record as “no binding (tested: 50 µg/ml (3.33×10^-7M) top concentration)”. The same molecule yielded an EC50 in assay [2] of 0.183 nM.

B2: RG2H10 (IgG) (antibody, V domains shown)
VH: QVQLQQSGPGLVRPSQTLSLSCDISGDSVSSNSATWNWIRQSPSRGLEWLGRTFYRSKWYHDYALSVKSRITINPDTSKNQFSLQLNSVSPGDTAVYFCVREDIDGRLDYWGQGTLVTVSS
VL: QPVLTQPASVSGSPGQSITISCTGTSSDVGGYNYVSWYQQHPGKAPKLMIYDVSNRPSGVSNRFSGSKSGNTASLAITGLQSDDDADYYCSAWDDSLNADVFGGGTKLTVL
notes: Detected with anti-human IgG (gamma chain specific); also called PD1 RG2H10
Consider B2, for which, in assay [1], the binding result was “no binding (tested: 50 µg/ml (3.33×10^-7M) top concentration)”. Also, a half-maximal response in assay [2] (EC50) required 2.8 nM.

B3: anti-PD-1 antibody RG1H10 (IgG, isotype not stated in the assay) (antibody, V domains shown)
VH: QVQLVQSGSELKKPGASVKISCKASGYIFSDNGVNWVRQAPGQGLEWMGWINTKIGNPTYAQGFTGRFVFSLDTSISTTYLQISSLQAGDTAVYYCAREHDYYYGMDVWGQGTTVTVSS
VL: QSALTQPPSASGSPGQSVTISCTGTSSDVGGYNYVSWYQHHPGKAPKLMIYEVSKRPSGVPDRFSGSKSAITASLTISGLLTEDEADYYCSAWDDSLNADVFGGGTKVTVL
notes: also called PD1 RG1H10
Take B3: the half-maximal effective concentration (EC50) in [3] is 0.391 nM; in [4], 0.84 nM; in assay [2], 0.0358 nM; in assay [5], 25.8 nM. In addition, the binding result in [1] is “no binding (tested: 50 µg/ml (3.33×10^-7M) top concentration)”; in the assay with recombinant mouse PD-1 it was “no binding”; in assay [8], “no binding”; with human CD28 (recombinant), “no binding”; with human ICOS (recombinant), “no binding”. Also, the “fold maximal binding against competitor 1” value in assay [5] was approximately 2 fold lower. Besides, in assay [6], the Ka was found to be 1.25e+09 M⁻¹. Further, the values for the Kd in assay [6] and in assay [7] were 0.802 nM and 3.2 nM, respectively. Besides, the koff in [6] came to 0.00104 s⁻¹. Moreover, the kon in assay [6] is 1.3e+06 M⁻¹ s⁻¹. For the same molecule, in assay [7], the “fold affinity against competitor 3” value is approximately 10 fold.

B4: RG1H10 (IgG4 S228P) (antibody, V domains shown)
VH: QVQLVQSGSELKKPGASVKISCKASGYIFSDNGVNWVRQAPGQGLEWMGWINTKIGNPTYAQGFTGRFVFSLDTSISTTYLQISSLQAGDTAVYYCAREHDYYYGMDVWGQGTTVTVSS
VL: QSALTQPPSASGSPGQSVTISCTGTSSDVGGYNYVSWYQHHPGKAPKLMIYEVSKRPSGVPDRFSGSKSAITASLTISGLLTEDEADYYCSAWDDSLNADVFGGGTKVTVL
notes: also called RG1H10 as immunoglobulin gamma 4 with hinge mutation S228P
B4 returned an EC50 in assay [9] of 0.047 nM. The same molecule returned an EC50 in assay [10] of 0.047 nM. In [11], the Kd turned out to be 1.6 nM, the koff was found to be 0.0014 s⁻¹ and the kon came to 880000 M⁻¹ s⁻¹.

B5: GA2 (IgG) (antibody, V domains shown)
VH: QVQLVQSGSELKKPGASVKISCKASGYIFSDNGVNWVRQAPGQGLEWMGWINTKIGNPTYAQGFTGRFVFSLDTSVSTTYLQISSLQAGDTAVYYCAREHDYYYGMDVWGQGTTVTVSS
VL: QPVLTQPPSASGTPGQRVTISCSGSSSNIGTNTVNWYQQVPGTAPKLLIHGNDQRPSGVPDRFSGSKSDTSASLAITGLQSDDDADYYCSAWDDSLNADVFGGGTKLTVL
notes: Detected with anti-human IgG (gamma chain specific); also called PD1 GA2
For B5, the binding result in assay [1] is on record as “no binding (tested: 50 µg/ml (3.33×10^-7M) top concentration)”. This molecule yielded an EC50 in [2] of 0.202 nM.

B6: H7 (IgG) (antibody, V domains shown)
VH: QVQLVQSGSELKKPGASVKISCKASGYIFSDNGVNWVRQAPGQGLEWMGWINTKIGNPTYAQGFTGRFVFSLDTSVSTTYLQISSLQAGDTAVYYCAREHDYYYGMDVWGQGTTVTVSS
VL: QSVLTQPASVSGSPGQSVTISCTGSSSDVGAYNFVSWYRQYPGKAPKLLIYEVNKRPSDVPDRFSGSKFGNTASLTVSGLQADDEADYYCSSYAGSTDVFGTGTKVTVL
notes: Detected with anti-human IgG (gamma chain specific); also called PD1 H7
Take B6: the binding result in [1] is listed as “no binding (tested: 50 µg/ml (3.33×10^-7M) top concentration)”. For the same molecule, in assay [2], the EC50 was 0.223 nM.

B7: RG1H10 (IgG1) (antibody, V domains shown)
VH: QVQLVQSGSELKKPGASVKISCKASGYIFSDNGVNWVRQAPGQGLEWMGWINTKIGNPTYAQGFTGRFVFSLDTSISTTYLQISSLQAGDTAVYYCAREHDYYYGMDVWGQGTTVTVSS
VL: QSALTQPPSASGSPGQSVTISCTGTSSDVGGYNYVSWYQHHPGKAPKLMIYEVSKRPSGVPDRFSGSKSAITASLTISGLLTEDEADYYCSAWDDSLNADVFGGGTKVTVL
notes: IgG1; also called RG1H10 as immunoglobulin gamma 1
Take B7: the EC50 in assay [9] turned out to be 0.67 nM. In assay [10], this molecule registered an EC50 of 0.67 nM. For the same molecule, in assay [11], the Kd amounted to 1.3 nM, the koff was determined as 0.001 s⁻¹ and the kon was found to be 750000 M⁻¹ s⁻¹.

B8: SH-A4 (IgG) (antibody, V domains shown)
VH: QVQLVQSGSELKKPGASVKISCKASGYIFSDNGVNWVRQAPGQGLEWMGWINTKIGNPTYAQGFTGRFVFSLDTSVSTTYLQISSLQAGDTAVYYCAREHDYYYGMDVWGQGTTVTVSS
VL: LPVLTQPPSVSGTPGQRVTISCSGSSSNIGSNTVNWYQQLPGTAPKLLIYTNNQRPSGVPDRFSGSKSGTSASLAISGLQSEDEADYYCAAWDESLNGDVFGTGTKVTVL
notes: Detected with anti-human IgG (gamma chain specific); also called PD1 SHA4
On to B8, for which the binding result in assay [1] is on record as “no binding (tested: 50 µg/ml (3.33×10^-7M) top concentration)”. In [2], this molecule displayed an EC50 of 0.115 nM.

B9: RG4A6 (IgG) (antibody, V domains shown)
VH: EVQLVESGGGLVQPGGSLRLSCAASGFTFSSYWMHWVRQAPGKGLEWVSSISSSSSYIYYADSVKGRFTISRDNAKNSLYLQMNSLRAEDTAVYYCARDTLEYYGSGILENAMGYYGMDVWGQGTTVTVSS
VL: not shown
notes: Detected with anti-human IgG (gamma chain specific); also called PD1 RG4A6
As for B9, the binding result in assay [1] is “no binding (tested: 50 µg/ml (3.33×10^-7M) top concentration)”. In assay [2], this molecule registered an EC50 of 0.779 nM.
